Assay results taken from PMC8442604.

Key:
[1] = target: SARS-CoV-2 RBD protein (321–591) (SARS-CoV-2) (UniProt P0DTC2); assay: SPR
[2] = target: SARS-CoV-2 RBD protein (321–591) (SARS-CoV-2) (UniProt P0DTC2)

Kd [1]: 0.81 nM
other [2]: 37.5 µg/mL
Substance: P2B-2F6 (antibody)
